Laboratory results as given in patent US20210179666A1 (REGENTS OF THE UNIVERSITY OF MINNESOTA, published 2021).
Read-outs that look alike come from different tables or passages of the source. Numbered stars: 1 amine (or outer) side, 2 acyl side, 3 side chain; on linkers, the order of the positions; unused ones are H or OH. Square brackets hold non-standard residues; d marks the D form. N(2-Aminoethyl)Gly = O=C(CN(CCN[*:3])[*:1])[*:2]; Gly(N-(CH2)3-guanidino) = N=C(N)NCCCNCC(=O)O; Nphe = O=C(O)CNCc1ccccc1; Dap = NC[C@H](N)C(=O)O; Sar = CNCC(=O)O

Assays:
[1] = biological target: T1, mouse melanocortin 1 receptor (mouse, UniProt Q01727 1-315); assay: cell-based or functional assay
T1 sequence (Q01727 whole entry): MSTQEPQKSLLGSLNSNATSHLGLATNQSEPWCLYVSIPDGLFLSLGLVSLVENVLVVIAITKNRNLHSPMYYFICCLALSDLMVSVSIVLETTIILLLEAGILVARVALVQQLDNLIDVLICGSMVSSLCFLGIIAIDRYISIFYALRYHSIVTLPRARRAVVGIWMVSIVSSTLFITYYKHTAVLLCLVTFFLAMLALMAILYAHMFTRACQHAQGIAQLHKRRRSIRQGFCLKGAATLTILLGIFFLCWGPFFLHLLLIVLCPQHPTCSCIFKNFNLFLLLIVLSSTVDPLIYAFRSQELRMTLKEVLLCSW

[2] = biological target: T2, mouse melanocortin 4 receptor (mouse, UniProt P56450 1-332); assay: cell-based or functional assay
T2 sequence (P56450 whole entry): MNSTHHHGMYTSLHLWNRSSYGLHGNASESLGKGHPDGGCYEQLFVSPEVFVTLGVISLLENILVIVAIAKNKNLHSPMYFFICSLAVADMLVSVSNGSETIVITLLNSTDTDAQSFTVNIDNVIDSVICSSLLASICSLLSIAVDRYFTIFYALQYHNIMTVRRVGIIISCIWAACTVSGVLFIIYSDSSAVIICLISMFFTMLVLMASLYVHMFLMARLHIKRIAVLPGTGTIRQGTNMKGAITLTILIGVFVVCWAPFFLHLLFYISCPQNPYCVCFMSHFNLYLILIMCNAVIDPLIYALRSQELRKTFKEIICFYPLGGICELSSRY

[3] = biological target: T3, mouse melanocortin 3 receptor (mouse, UniProt P33033 1-323); assay: cell-based or functional assay
T3 sequence (P33033 whole entry): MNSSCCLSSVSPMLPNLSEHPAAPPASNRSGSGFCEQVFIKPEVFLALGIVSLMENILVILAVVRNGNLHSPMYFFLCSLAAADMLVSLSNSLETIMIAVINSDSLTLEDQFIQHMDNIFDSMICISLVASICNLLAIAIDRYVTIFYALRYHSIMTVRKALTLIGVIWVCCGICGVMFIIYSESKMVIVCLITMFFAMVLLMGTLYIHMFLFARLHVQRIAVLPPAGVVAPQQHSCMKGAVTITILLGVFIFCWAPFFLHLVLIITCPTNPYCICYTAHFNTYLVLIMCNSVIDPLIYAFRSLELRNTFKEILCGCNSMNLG

[4] = biological target: T4, mouse melanocortin 5 receptor (mouse, UniProt P41149 1-325); assay: cell-based or functional assay
T4 sequence (P41149 whole entry): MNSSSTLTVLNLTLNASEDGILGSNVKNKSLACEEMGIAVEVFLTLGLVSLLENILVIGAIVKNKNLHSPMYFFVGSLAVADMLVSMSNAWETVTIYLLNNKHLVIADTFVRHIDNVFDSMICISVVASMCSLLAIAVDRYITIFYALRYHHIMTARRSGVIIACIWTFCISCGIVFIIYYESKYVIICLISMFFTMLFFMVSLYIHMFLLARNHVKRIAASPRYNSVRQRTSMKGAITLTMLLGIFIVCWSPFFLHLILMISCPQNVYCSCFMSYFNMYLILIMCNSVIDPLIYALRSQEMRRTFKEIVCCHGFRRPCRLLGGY

[5] = biological target: T1, mouse melanocortin 1 receptor; assay: 125I-NDP-MSH competition, HEK293 cells
[6] = biological target: T5, human melanocortin 4 receptor (human, UniProt P32245 1-332); assay: 125I-NDP-MSH competition, HEK293 cells
T5 construct: whole, on cells; the assays used the receptor on HEK293 cells; also called hMC4R
T5 sequence (P32245 whole entry): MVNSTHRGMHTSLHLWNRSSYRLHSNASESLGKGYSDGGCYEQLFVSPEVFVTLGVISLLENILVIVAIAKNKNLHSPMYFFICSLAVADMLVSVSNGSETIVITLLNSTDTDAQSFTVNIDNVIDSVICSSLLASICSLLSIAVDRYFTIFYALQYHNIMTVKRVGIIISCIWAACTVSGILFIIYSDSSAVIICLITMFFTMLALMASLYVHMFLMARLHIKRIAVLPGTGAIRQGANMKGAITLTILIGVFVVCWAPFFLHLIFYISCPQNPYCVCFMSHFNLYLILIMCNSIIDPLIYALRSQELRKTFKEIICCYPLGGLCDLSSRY

[7] = biological target: T2, mouse melanocortin 4 receptor; assay: 125I-NDP-MSH competition, HEK293 cells
[8] = biological target: T3, mouse melanocortin 3 receptor; assay: cell-based or functional assay; remark: listed apart in the source
[9] = biological target: T1, mouse melanocortin 1 receptor; assay: cell-based or functional assay; remark: listed apart in the source
[10] = biological target: T2, mouse melanocortin 4 receptor; assay: cell-based or functional assay; remark: listed apart in the source
[11] = biological target: T2, mouse melanocortin 4 receptor; assay: 125I-NDP-MSH competition; fold vs SEQ ID NO: 1 control
[12] = biological target: T5, human melanocortin 4 receptor; assay: cell-based or functional assay
[13] = biological target: T5, human melanocortin 4 receptor; assay: 125I-NDP-MSH competition; fold vs SEQ ID NO: 1 control
[14] = biological target: T4, mouse melanocortin 5 receptor; assay: cell-based or functional assay; remark: listed apart in the source
[15] = biological target: T4, mouse melanocortin 5 receptor; assay: 125I-NDP-MSH competition, HEK293 cells
[16] = biological target: T3, mouse melanocortin 3 receptor; assay: 125I-NDP-MSH competition, HEK293 cells

cyclo(PR[Nphe]FNAF[dP]) [MDE9-77c]
EC50 (cAMP agonist) [1]: 0.24 µM
pA2 (Schild analysis, agonist NDP-MSH, cAMP) [2]: < 5.5

PRFFXAFP (head-to-tail cyclic; NPhe (N-benzylglycine) at 4; Dap at 5; DPro at 8) [MDE9-93c]
EC50 (cAMP agonist) [3]: > 100 µM
pA2 (Schild analysis, agonist NDP-MSH, cAMP) [3]: 7.1
EC50 (cAMP partial agonist) [1]: 2.7 µM
Partial Agonist, percent of NDP-MSH (cAMP) [1]: 60%
Inverse Agonist, percent decrease from basal (cAMP) [4]: -10%

B1: MDE7-26-1c (peptide)
peptide: cyclo(P[Gly(N-(CH2)3-guanidino)]FFNAF[dP])
SMILES: C[C@@H]1NC(=O)[C@H](CC(N)=O)NC(=O)[C@H](Cc2ccccc2)NC(=O)[C@H](Cc2ccccc2)NC(=O)CN(CCCNC(=N)N)C(=O)[C@@H]2CCCN2C(=O)[C@H]2CCCN2C(=O)[C@H](Cc2ccccc2)NC1=O
EC50 (cAMP partial agonist) [1]: 3.1 µM
Partial Agonist, percent of NDP-MSH (cAMP) [1]: 50%
pA2 (Schild analysis, agonist NDP-MSH, cAMP) [2]: < 5.5

cyclo(PRFF[N(2-Aminoethyl)Gly]AF[dP]) [MDE9-111c]
EC50 (cAMP agonist) [3]: > 100 µM
pA2 (Schild analysis, agonist NDP-MSH, cAMP) [3]: 6.9
percent maximal stimulatory response at 100 µM (cAMP) [1]: 60%
Inverse Agonist, percent decrease from basal (cAMP) [4]: -10%

PRFFXAFP (head-to-tail cyclic; Dap at 5; NPhe (N-benzylglycine) at 7; DPro at 8) [MDE8-108-7c]
EC50 (cAMP agonist) [3]: > 100 µM
EC50 (cAMP agonist) [1]: > 100 µM
pA2 (Schild analysis, agonist NDP-MSH, cAMP) [2]: 6.6
Inverse Agonist, percent decrease from basal (cAMP) [4]: -10%

B2: MDE7-26-4c (peptide)
peptide: cyclo(PRFFN[Sar]F[dP])
SMILES: CN1CC(=O)N[C@@H](Cc2ccccc2)C(=O)N2CCC[C@@H]2C(=O)N2CCC[C@H]2C(=O)N[C@@H](CCCNC(=N)N)C(=O)N[C@@H](Cc2ccccc2)C(=O)N[C@@H](Cc2ccccc2)C(=O)N[C@@H](CC(N)=O)C1=O
EC50 (cAMP agonist) [1]: 1 µM
pA2 (Schild analysis, agonist NDP-MSH, cAMP) [2]: < 5.5

cyclo(PRF[Nphe]NAF[dP]) [MDE9-88c]
EC50 (cAMP partial agonist) [1]: 5.6 µM
Partial Agonist, percent of NDP-MSH (cAMP) [1]: 70%
pA2 (Schild analysis, agonist NDP-MSH, cAMP) [2]: 8.4

PRFFXAFP (head-to-tail cyclic; NPhe (N-benzylglycine) at 3; Dap at 5; DPro at 8) [MDE9-32c]
EC50 (cAMP agonist) [3]: > 100 µM
pA2 (Schild analysis, agonist NDP-MSH, cAMP) [3]: 6.9
EC50 (cAMP partial agonist) [1]: 0.11 µM
Partial Agonist, percent of NDP-MSH (cAMP) [1]: 80%
EC50 (cAMP partial agonist) [4]: 0.55 µM
Partial Agonist, percent of NDP-MSH (cAMP) [4]: 70%

B3: 1 (MDE 6-82-3c) (peptide)
peptide: cyclo(PRFFNAF[dP])
modifications: also: assayed as TFA salt
notes: AgRP 111-116 loop cyclized through DPro-Pro; Asn5 parent scaffold; assayed as TFA salt; also called Compound 1; c[Pro-Arg-Phe-Phe-Asn-Ala-Phe-DPro]
IC50 [5]: 9 µM

B4: ZMK 2-110 (peptide)
peptide: cyclo(PRYFNAF[dP])
notes: Phe112Tyr SNP in the Asn scaffold; also called c[Pro-Arg-Tyr-Phe-Asn-Ala-Phe-DPro]
IC50 [6]: 14.3 µM
IC50 [7]: 2 µM
EC50 (cAMP agonist) [8]: > 100 µM
pA2 (Schild analysis, agonist NDP-MSH, cAMP) [8]: 5.8
EC50 (cAMP agonist) [9]: > 100 µM
EC50 (cAMP agonist) [10]: > 100 µM
pA2 (Schild analysis, agonist NDP-MSH, cAMP) [10]: 6.1
Fold Diff [11]: 100 fold
pA2 (Schild analysis, agonist NDP-MSH, cAMP) [12]: 6.5
Fold Diff [13]: 2000 fold

B5: ZMK 2-96 (peptide)
peptide: cyclo(PHFFNAF[dP])
notes: Arg111His SNP in the Asn scaffold; also called c[Pro-His-Phe-Phe-Asn-Ala-Phe-DPro]
IC50 [6]: 22 µM
IC50 [7]: 6.7 µM
EC50 (cAMP agonist) [8]: > 100 µM
pA2 (Schild analysis, agonist NDP-MSH, cAMP) [8]: < 5
percent maximal stimulatory response at 100 µM (cAMP) [9]: 23%
EC50 (cAMP agonist) [10]: > 100 µM
pA2 (Schild analysis, agonist NDP-MSH, cAMP) [10]: 5.3
EC50 (cAMP agonist) [14]: > 100 µM
Fold Diff [11]: 300 fold
pA2 (Schild analysis, agonist NDP-MSH, cAMP) [12]: 5.8
Fold Diff [13]: 300 fold

cyclo(PRFFNA[Nphe][dP]) [MDE7-26-5c]
percent maximal stimulatory response at 100 µM (cAMP) [3]: 60%
percent maximal stimulatory response at 100 µM (cAMP) [1]: 85%
pA2 (Schild analysis, agonist NDP-MSH, cAMP) [2]: < 5.5

B6: MDE8-108-3c (peptide)
peptide: PRFFXAFP
modifications: head-to-tail cyclic; NArg (N-(3-guanidino-propyl)-glycine) at 2; Dap at 5; DPro at 8
EC50 (cAMP agonist) [3]: > 100 µM
pA2 (Schild analysis, agonist NDP-MSH, cAMP) [3]: 5.9
EC50 (cAMP agonist) [1]: > 100 µM
EC50 (cAMP agonist) [4]: > 100 µM

PRFFXAFP (head-to-tail cyclic; Dap at 5; NAla (N-methylglycine) at 6; DPro at 8) [MDE8-108-6c]
EC50 (cAMP agonist) [3]: > 100 µM
pA2 (Schild analysis, agonist NDP-MSH, cAMP) [3]: 5.6
EC50 (cAMP agonist) [1]: > 100 µM
pA2 (Schild analysis, agonist NDP-MSH, cAMP) [2]: 6.1
EC50 (cAMP agonist) [4]: > 100 µM

B7: 2 (MDE 6-82-1c) (peptide)
peptide: PRFFXAFP
modifications: head-to-tail cyclic; Dap (diaminopropionic acid) at 5; DPro at 8
notes: Dap5 parent scaffold; assayed as TFA salt; also called Compound 2; c[Pro-Arg-Phe-Phe-Dap-Ala-Phe-DPro]
pA2 (Schild analysis, agonist NDP-MSH, cAMP) [3]: 6.5
percent maximal stimulatory response at 100 µM (cAMP) [3]: 20%
percent maximal stimulatory response at 100 µM (cAMP) [1]: 36%
Inverse Agonist, percent decrease from basal (cAMP) [4]: -10%
IC50 [5]: 5.2 µM
IC50 [15]: 1.7 µM

B8: ZMK 2-85 (peptide)
peptide: cyclo(PRFF[Dap]VF[dP])
notes: Ala115Val SNP in the Dap scaffold; also called c[Pro-Arg-Phe-Phe-Dap-Val-Phe-DPro]
IC50 [6]: 0.0322 µM
IC50 [16]: 10 µM
IC50 [5]: 8 µM
IC50 [15]: 2.7 µM
pA2 (Schild analysis, agonist NDP-MSH, cAMP) [8]: 6.1
percent maximal stimulatory response at 100 µM (cAMP) [8]: 27%
percent maximal stimulatory response at 100 µM (cAMP) [9]: 79%
percent maximal stimulatory response at 100 µM (cAMP) [10]: 37%
EC50 (cAMP agonist) [14]: > 100 µM
pA2 (Schild analysis, agonist NDP-MSH, cAMP) [14]: 6.3
pA2 (Schild analysis, agonist NDP-MSH, cAMP) [12]: 7.6
